Measurements published in patent publication US20190389941A1.

Molecular target: complement proteins
Assay: cell-based or functional assay

| CDC inhibition IC50 (anti-CD20-coated Will-2 cells plus serum) [µg/mL] | Binder |
| --- | --- |
| 10 | G1098, P0DOX5 218-449 (Fc fusion) EPKSCDKTHTCPPCPAPELLGGPSVFLFPPKPKDTLMISRTPEVTCVVVDVSHEDPEVKFNWYVDGVEVHNAKTKPREEQYNSAYRVVSVLTVLHQDWLNGKEYKCKVSNKALPAPIEKTISKAKGQPREPQVYTLPPSREEMTKNQVSLTCLVKGFYPSDIAVEWESNGQPENNYKTTPPVLDSDGSFFLYSKLTVDKSRWQQGNVFSCSVMHGALHNHYTQKYLSLSPGKERKCCVECPPCP |
| 5 | G1126, P0DOX5 218-449 (Fc fusion) EPKSCDKTHTCPPCPAPELLGGPSVFLFPPKPKDTLMISRTPEVTCVVVDVSHEDPEVKFNWYVDGVEVHNAKTKPREEQYNSAYRVVSVLTVLHQDWLNGKEYKCKVSNKALPAPIEKTISKAKGQPRRPQVYTLPPSREEMTKNQVSLTCLVKGFYPSDIAVEWESNGQPENNYKTTPPVLDSDGSFFLYSKLTVDKSRWQQGNVFSCSVMHGALHNHYTQKYLSLSPGKERKCCVECPPCP |
